The target in assay [1] is T1, CEACAM5 Nterm IgV-His (human, UniProt P06731 35-144).
T1 construct: also called N-term domain of hCEACAM5
T1 sequence: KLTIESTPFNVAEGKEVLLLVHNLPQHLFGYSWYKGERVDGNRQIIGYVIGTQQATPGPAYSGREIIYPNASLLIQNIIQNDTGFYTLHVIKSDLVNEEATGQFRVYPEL
Description: SPR, hFc capt, 37C. The method, then: (§1) The various hCEACAM5 protein domains were titrated over the captured antibody at 50 μL/min for 180 sec of association and 300 sec of dissociation. The assay was run at 37° C. in HBS-EP+ running buffer, pH 7.4. The surface of the CM5 chip was regenerated using 3M MgCl₂.

In assay [2] the target is T2, CEACAM5 N-A1-B1-His (human, UniProt P06731 35-322, limits assumed).
T2 sequence: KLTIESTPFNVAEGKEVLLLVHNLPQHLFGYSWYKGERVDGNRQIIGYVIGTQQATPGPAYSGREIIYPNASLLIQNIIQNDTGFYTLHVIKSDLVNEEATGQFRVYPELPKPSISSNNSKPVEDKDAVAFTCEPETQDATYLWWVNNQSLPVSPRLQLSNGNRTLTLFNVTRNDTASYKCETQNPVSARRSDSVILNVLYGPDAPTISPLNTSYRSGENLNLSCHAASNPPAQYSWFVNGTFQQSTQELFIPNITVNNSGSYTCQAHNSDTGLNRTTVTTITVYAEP
Description: SPR, hFc capt, 37C. Here is the method: as §1
(In SPR one partner is held on a chip, and binding of the other changes the refractive index at the surface.)

The target of assay [3] is T3, Human CEACAM5 (E398) (human, UniProt P06731 35-685, limits assumed).
T3 construct: also called hCEACAM5
T3 sequence: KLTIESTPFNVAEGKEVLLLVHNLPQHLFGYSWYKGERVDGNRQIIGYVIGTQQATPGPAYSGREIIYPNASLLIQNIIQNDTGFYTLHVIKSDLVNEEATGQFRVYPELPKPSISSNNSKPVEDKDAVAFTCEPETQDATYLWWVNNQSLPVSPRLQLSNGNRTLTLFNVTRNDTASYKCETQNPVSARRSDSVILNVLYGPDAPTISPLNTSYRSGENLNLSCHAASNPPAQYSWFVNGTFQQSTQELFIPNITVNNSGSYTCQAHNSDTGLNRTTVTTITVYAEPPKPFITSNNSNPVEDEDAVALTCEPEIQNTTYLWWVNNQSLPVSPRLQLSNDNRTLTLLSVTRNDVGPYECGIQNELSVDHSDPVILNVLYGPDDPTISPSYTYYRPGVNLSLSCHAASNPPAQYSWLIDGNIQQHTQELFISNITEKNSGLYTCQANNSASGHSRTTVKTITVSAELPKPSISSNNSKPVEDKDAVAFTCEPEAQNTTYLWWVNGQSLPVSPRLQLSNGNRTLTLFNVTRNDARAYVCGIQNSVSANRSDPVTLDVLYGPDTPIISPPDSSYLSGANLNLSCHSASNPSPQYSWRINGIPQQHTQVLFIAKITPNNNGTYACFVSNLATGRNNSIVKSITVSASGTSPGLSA
Briefly: SPR, anti-hFc capture, 37C, pH 6.0. Here is the method: To determine the affinity and cross-reactivity of CEACAM5 TriNKET molecules, AB0411, AB0466, or AB0621 TriNKETs were captured using an anti-human Fc capture antibody (Cytiva, #BR100839) immobilized onto a Biacore CM5 standard surface sensor chip following manufacturer instructions. Human or cynomolgus CEACAM5 were titrated over captured AB0411, AB0466, and AB0621 as 2-fold serial dilutions starting from 300 nM. Association was monitored for 300 sec and dissociation was monitored for 600 sec. The assay was run at 37° C. at pH 7.4 and 6.0. The surface of the CM5 chip was regenerated with 10 mM glycine pH 1.5 for 20 sec at 100 μL/min.

In assay [4] the target is T4, human CD16A (FcγRIIIA) V158 (human, UniProt P08637 17-208, limits assumed, biotinylated in the assay of Table 21).
T4 construct: also called CD16A (V158/V176)
Briefly: SPR, biotin-CD16A on SA chip, 25C, pH 6.0. The method, then:
(§2) Binding to human and cynomolgus CD16A was assessed using biotinylated CD16A captured on a streptavidin (SA) sensor chip (Cytiva, #BR100531). AB0411, AB0466, or AB0621 was titrated from 1500 nM at 25° C. at 30 μL/min for 150 sec association followed by 300 sec dissociation. The surface of the chip was regenerated with 2 mM sodium hydroxide for 5 sec at 30 μL/min. Running buffer was HBS-EP+. […] The V158 isoform bound ˜2- to 3-fold tighter than the F158 isoform as expected.

Assay [5] concerns the target T5, Cyno FcγRIIIA (cynomolgus monkey, UniProt Q8SPW2 17-208, limits assumed, biotinylated).
T5 construct: also called cynomolgus CD16A
Description: SPR, biotin-CD16A on SA chip, 25C, pH 6.0. Here is the method:
as §2

Assay [6] addresses T6, human CEACAM6 on Ba/F3 cells (human, UniProt P40199 35-320).
T6 construct: whole, on cells
T6 sequence (looked up): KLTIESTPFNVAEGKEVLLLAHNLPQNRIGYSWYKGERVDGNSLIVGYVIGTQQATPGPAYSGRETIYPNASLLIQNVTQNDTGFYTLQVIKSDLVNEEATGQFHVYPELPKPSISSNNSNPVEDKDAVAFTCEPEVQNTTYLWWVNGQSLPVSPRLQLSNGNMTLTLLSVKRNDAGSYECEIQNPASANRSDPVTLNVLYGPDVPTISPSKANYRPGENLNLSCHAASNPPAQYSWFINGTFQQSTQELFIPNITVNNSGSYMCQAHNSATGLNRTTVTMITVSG
Description: flow cytometry on Ba/F3 cells expressing human CEACAM6, fold over background (FOB), 5-fold dilutions from 1600 nM. The method, then:
To examine the binding specificity of the TriNKETs to CEACAM5 compared to other CEACAM family members, Ba/F3 cells were engineered to express one of human CEACAM1, CEACAM6, CEACAM8, or cynomolgus CEACAM5. CEACAM5 TriNKETs were evaluated by flow cytometry starting at 1600 nM followed by 7 5-fold dilutions.
For orientation: A flow cytometer gives signals particle by particle.

T4 sequence (P08637 17-208 F176V limits assumed): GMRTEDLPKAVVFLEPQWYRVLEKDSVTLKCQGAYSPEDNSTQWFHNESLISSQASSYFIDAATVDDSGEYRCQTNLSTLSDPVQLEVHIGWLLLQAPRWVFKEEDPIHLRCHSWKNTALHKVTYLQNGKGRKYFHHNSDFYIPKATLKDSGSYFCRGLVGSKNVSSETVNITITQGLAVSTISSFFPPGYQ
T5 sequence (Q8SPW2 17-208 limits assumed): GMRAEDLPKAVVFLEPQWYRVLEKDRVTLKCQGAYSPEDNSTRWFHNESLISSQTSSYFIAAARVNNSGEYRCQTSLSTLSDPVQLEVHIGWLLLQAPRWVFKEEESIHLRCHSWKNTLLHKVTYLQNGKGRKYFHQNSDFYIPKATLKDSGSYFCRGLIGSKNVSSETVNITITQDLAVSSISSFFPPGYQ

B1: AB0621 F3' CEACAM5 TriNKET (bispecific antibody, human IgG1, kappa)
chain: DIVMTQSPDSLAVSLGERATINCKSSHSLLYGNFQNNYLAWYQQKPGQPPKLLIYWASTRESGVPDRFSGSGSGTDFTLTISSLQAEDVAVYYCQQYYSYPYTFGCGTKLEIKGGGGSGGGGSGGGGSGGGGSQVQLVQSGAEVKKPGASVKVSCKASGYTFTAYTIHWVRQAPGQCLEWMGYINPSSGYTEYNQKFKDRTTLTADTSISTAYMELSRLRSDDTAVYYCTREGGLLWFDYWGQGTLVTVSSGSDKTHTCPPCPAPELLGGPSVFLFPPKPKDTLMISRTPEVTCVVVDVSHEDPEVKFNWYVDGVEVHNAKTKPREEQYNSTYRVVSVLTVLHQDWLNGKEYKCKVSNKALPAPIEKTISKAKGQPREPRVYTLPPCRDELTKNQVSLTCLVKGFYPSDIAVEWESNGQPENNYKTTPPVLVSDGSFTLYSKLTVDKSRWQQGNVFSCSVMHEALHNHYTQKSLSLSPG
heavy: EVQLVESGGGLVKPGGSLRLSCAASGFTFSSYSMNWVRQAPGKGLEWVSSISSSSSYIYYADSVKGRFTISRDNAKNSLYLQMNSLRAEDTAVYYCARGAPIGAAAGWFDPWGQGTLVTVSSASTKGPSVFPLAPSSKSTSGGTAALGCLVKDYFPEPVTVSWNSGALTSGVHTFPAVLQSSGLYSLSSVVTVPSSSLGTQTYICNVNHKPSNTKVDKKVEPKSCDKTHTCPPCPAPELLGGPSVFLFPPKPKDTLMISRTPEVTCVVVDVSHEDPEVKFNWYVDGVEVHNAKTKPREEQYNSTYRVVSVLTVLHQDWLNGKEYKCKVSNKALPAPIEKTISKAKGQPREPQVCTLPPSRDELTENQVSLTCLVKGFYPSDIAVEWESNGQPENNYKTTPPVLDSDGSFFLYSWLTVDKSRWQQGNVFSCSVMHEALHNHYTQKSLSLSPG
light: DIQMTQSPSSVSASVGDRVTITCRASQGISSWLAWYQQKPGKAPKLLIYAASSLQSGVPSRFSGSGSGTDFTLTISSLQPEDFATYYCQQGVSFPRTFGGGTKVEIKRTVAAPSVFIFPPSDEQLKSGTASVVCLLNNFYPREAKVQWKVDNALQSGNSQESVTEQDSKDSTYSLSSTLTLSKADYEKHKVYACEVTHQGLSSPVTKSFNRGEC
The term Kd denotes the equilibrium constant for the complex coming apart. Read a low Kd as a tighter complex. The kon is the rate constant with which the complex forms. For orientation: koff means the rate constant with which the complex falls apart. A higher koff goes with fast dissociation. On to B1, for which the binding result was “no binding” in assay [1] and “no binding (tested: 1600 nM)” in assay [6]. The Kd in assay [2] was determined as 11 nM; in assay [3] it was 14 nM; in assay [4] it was 58 nM; in assay [5], 25 nM. Further, the kon was found to be 150000 M⁻¹ s⁻¹ in assay [2], 140000 M⁻¹ s⁻¹ in assay [3] and 690000 M⁻¹ s⁻¹ in assay [4]. This molecule also came in with a koff in assay [4] of 0.04 s⁻¹.

(Values after patent US20240124607A1 (Merck Sharp & Dohme, published 2024).)
